According to PMC5854732:

Assays:
[1] = molecular target: toposome (major yolk protein) purified from gonads of Paracentrotus lividus collected at the bloom phase (T0) (Paracentrotus lividus (endogenous in gonads)); test: SEC; gel filtration on Sephacryl S-400 HR (1.8 x 42 cm), Tris-HCl buffer pH 8.0 with 150 mM NaCl, 0.5 ml/min; size by comparison with standards (blue dextran 2,000 kDa, thyroglobulin 669 kDa, apoferritin 443 kDa); apparent molecular weight
[2] = molecular target: toposome (major yolk protein) purified from gonads of Paracentrotus lividus collected prior to the bloom (C) (Paracentrotus lividus (endogenous in gonads)); test: as above

| Substance | stoichiometry N [1] | stoichiometry N [2] |
| --- | --- | --- |
| toposome (major yolk protein) purified from gonads of Paracentrotus lividus collected at the bloom phase (T0) (natural protein) | 3 | – |
| toposome (major yolk protein) purified from gonads of Paracentrotus lividus collected prior to the bloom (C) (natural protein) | – | 3 |
